Measured values reported in PMC3979375 (2014).

Columns and labels:
[1] = target: T1, GST-GUK, fusion protein of GST and the GUK domain of SAP102 (Rattus norvegicus (Rat), UniProt Q62936); test: GST pulldown
T1 chain: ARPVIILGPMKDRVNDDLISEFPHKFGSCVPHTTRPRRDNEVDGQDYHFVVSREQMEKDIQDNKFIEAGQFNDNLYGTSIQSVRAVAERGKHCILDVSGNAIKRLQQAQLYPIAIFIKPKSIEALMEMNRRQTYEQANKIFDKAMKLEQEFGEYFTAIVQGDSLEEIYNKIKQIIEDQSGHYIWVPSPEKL

[2] = target: T2, GST-SH3-GUK, fusion protein of GST and the combined SH3-GUK domain of SAP102 (Rattus norvegicus (Rat), UniProt Q62936); test: GST pulldown / amylose pulldown
T2 chain: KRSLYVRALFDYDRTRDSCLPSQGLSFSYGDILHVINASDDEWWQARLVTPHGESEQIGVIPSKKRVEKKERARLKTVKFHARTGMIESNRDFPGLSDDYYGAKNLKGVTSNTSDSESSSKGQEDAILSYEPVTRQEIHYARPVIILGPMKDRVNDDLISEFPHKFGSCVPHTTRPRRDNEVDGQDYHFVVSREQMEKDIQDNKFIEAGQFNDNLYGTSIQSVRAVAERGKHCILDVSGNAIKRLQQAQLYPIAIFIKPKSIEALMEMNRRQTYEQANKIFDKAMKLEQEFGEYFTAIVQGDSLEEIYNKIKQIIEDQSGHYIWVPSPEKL

[3] = target: T3, GST-SH3, fusion protein of GST and the SH3 domain of SAP102 (Rattus norvegicus (Rat), UniProt Q62936); test: GST pulldown / amylose pulldown
T3 chain: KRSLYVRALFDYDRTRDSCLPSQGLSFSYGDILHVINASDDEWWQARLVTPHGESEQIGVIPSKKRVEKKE

Measured: binding result

B1: MBP-A2A-CT, fusion protein comprising maltose-binding protein and the carboxyl terminus of the A2A receptor (protein)
chain: RIREFRQTFRKIIRSHVLRQQEPFKAAGTSARVLAAHGSDGEQVSLRLNGHPPGVWANGSAPHPERRPNGYALGLVSGGSAQESQGNTGLPDVELLSHELKGVCPEPPGLDDPLAQDGAGVS
binds: all assays above
